Laboratory results reported in patent US20230110188A1 (ARGENX IIP, published 2023).
Where a chain is given by its changes, count along the chain named.

T1: Mouse MuSK as it stands on mouse muscle (neuromuscular junctions, C2C12 myotubes) (mouse, UniProt Q61006 22-868)
T1 sequence (looked up): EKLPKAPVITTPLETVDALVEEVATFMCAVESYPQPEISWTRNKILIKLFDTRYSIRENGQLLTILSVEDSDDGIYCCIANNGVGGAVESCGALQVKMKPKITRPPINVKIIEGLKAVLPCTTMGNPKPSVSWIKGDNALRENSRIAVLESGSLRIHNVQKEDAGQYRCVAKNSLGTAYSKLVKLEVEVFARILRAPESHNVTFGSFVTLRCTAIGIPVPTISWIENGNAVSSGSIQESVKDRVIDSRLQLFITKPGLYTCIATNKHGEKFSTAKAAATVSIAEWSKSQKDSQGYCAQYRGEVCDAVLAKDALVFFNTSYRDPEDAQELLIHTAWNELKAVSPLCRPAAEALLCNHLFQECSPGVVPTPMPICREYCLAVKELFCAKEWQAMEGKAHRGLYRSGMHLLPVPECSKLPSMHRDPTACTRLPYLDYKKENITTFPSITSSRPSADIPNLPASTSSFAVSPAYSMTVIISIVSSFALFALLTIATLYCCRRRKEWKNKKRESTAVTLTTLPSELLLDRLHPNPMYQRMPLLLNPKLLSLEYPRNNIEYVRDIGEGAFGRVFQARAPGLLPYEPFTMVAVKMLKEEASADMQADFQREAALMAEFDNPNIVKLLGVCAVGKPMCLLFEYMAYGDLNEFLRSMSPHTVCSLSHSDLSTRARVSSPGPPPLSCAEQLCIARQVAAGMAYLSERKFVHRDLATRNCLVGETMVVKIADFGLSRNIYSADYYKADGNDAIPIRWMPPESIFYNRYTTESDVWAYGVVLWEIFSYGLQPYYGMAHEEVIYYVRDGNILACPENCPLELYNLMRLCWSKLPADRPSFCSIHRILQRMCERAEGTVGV

T2: Human MuSK (R&D Systems, cat. 10189-MK, histidine tag) (human, UniProt O15146 24-495)
T2 construct: Bought protein; also called human monomeric MuSK-6xhis; not shown: histidine tag (6xhis)
T2 sequence: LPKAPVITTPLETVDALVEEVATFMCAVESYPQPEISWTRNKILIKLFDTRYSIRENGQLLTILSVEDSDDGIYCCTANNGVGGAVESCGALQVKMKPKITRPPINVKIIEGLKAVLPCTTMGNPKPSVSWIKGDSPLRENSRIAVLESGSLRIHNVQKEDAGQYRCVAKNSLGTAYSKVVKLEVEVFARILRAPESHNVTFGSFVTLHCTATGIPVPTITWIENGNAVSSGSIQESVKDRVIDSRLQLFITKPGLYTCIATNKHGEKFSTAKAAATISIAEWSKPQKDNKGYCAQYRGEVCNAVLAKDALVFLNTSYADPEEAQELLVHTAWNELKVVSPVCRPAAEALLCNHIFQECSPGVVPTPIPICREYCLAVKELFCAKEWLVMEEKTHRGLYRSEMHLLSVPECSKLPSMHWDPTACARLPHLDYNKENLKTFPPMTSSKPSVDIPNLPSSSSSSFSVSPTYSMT

T3: human monomeric MuSK FLAG streptavidin (in house produced, batch 27-6-2019) (human, UniProt O15146 24-495)
T3 construct: also called full length MuSK; not shown: FLAG and streptavidin tags
T3 sequence: T2 sequence

B1: 3D10a (antibody, human IgG1, kappa, L234A L235A, V domains shown)
VH: EVQLVESGGGLVKPGGSLRLSCAASGFTFSASTMAWVRQAPGKGLEWVSSVSGDSHHIYYADSLKGRFTISRDNAKNSLYLQMNSLRAEDTAVYYCARERLLRLGVGFDSWGQGTLVTVSS
VL: DIQMTQSPSSLSASVGDRVTITCRASQRISGFVNWYQQKPGKAPKLLIYAASTLQSGVPSRFSGSGSGTDFTLTISSLQPEDFATYYCQQSYSPLYTFGQGTKLEIKR
B2: 4D3 (antibody, human IgG1, kappa, L234A L235A, V domains shown)
VH: B1 VH with A31S, S32Y, A35T, V51I, G53S, D54G, S55G, H57Y, A61T, S110F
VL: B1 VL with R28S, F32Y, V33L, P94A
B3: 3D9b (antibody, human IgG1, kappa, L234A L235A, V domains shown)
VH: EVQLVESGGGLVKPGGSLRLSCAASGFTFSTYTMHWVRQAPGKGLEWVSSISSRSAYKYYADSVKGRFTISRDNAKNSLYLQMNSLRAEDTAVYYCARDFFQLGPPRFDSWGQGTLVTVSS
VL: B1 VL with G31S, V33L, A50G, T53N, L95S
B4: 3F6c (antibody, human IgG1, kappa, L234A L235A, V domains shown)
VH: EVQLVESGGGLVKPGGSLRLSCAASGFTFSSYTMDWVRQAPGKGLEWVSSIGSNGDYIYYADSVRGRFTISRDNAKNSLYLQMNSLRAEDTAVYYCARGQLAVAGTHFDYWGQGTLVTVSS
VL: B1 VL with R28K, I29V, S30N, G31K, F32Y, Y96S

Experiments:
[1] = molecular target: T1, Mouse MuSK as it stands on mouse muscle …; assay: cell-based or functional assay
[2] = molecular target: T1, Mouse MuSK as it stands on mouse muscle …; assay: cell-based or functional assay; remark: listed apart in the source
[3] = molecular target: T2, Human MuSK (R&D Systems, cat. 10189-MK, …); assay: SPR (Biacore), pH 5.5 (summary table, repeats the average of Table 17)
Excerpt: (§1) In order to study pH dependent binding of our antibodies to MuSK, the Biacore was used with the same setup as described in the paragraph entitled “Binding affinity for mouse, human and rhesus monkey recombinant MuSK in Biacore”. 6. […] For the other antibodies there is no real difference observed between pH 7.4 and 5.5.

[4] = molecular target: T2, Human MuSK (R&D Systems, cat. 10189-MK, …); assay: SPR (Biacore), antibody captured on anti-hFc chip; 1.25 nM; dissociation pH 5.5
Excerpt: as §1

[5] = molecular target: T2, Human MuSK (R&D Systems, cat. 10189-MK, …); assay: SPR (Biacore), antibody captured on anti-hFc chip; 0.625 nM; dissociation pH 7.4
Excerpt: as §1

[6] = molecular target: T2, Human MuSK (R&D Systems, cat. 10189-MK, …); assay: SPR (Biacore), antibody captured on anti-hFc chip; 0.625 nM; dissociation pH 5.5
Excerpt: as §1

[7] = molecular target: T2, Human MuSK (R&D Systems, cat. 10189-MK, …); assay: SPR (Biacore), antibody captured on anti-hFc chip; 0.3125 nM; dissociation pH 7.4
Excerpt: as §1

[8] = molecular target: T2, Human MuSK (R&D Systems, cat. 10189-MK, …); assay: SPR (Biacore), antibody captured on anti-hFc chip; 0.3125 nM; dissociation pH 5.5
Excerpt: as §1

[9] = molecular target: T3, human monomeric MuSK FLAG streptavidin …; assay: epitope binning ELISA (coated anti-MuSK Fab, MuSK, IgG, anti-Fc HRP); competitor: 3B5wt
Description: For epitope binning—An ELISA plate was coated at 1 μg/ml of the anti-MuSK Fabs and incubated overnight at 4° C. Next, the plate was wash with PBS followed by blocking with 1% casein in PBS for one hour. After washing the plate, 1 μg/ml of human monomeric MuSK (in house produced, batch 27-6-2019) was incubated for one hour at RT. The plate was washed and anti-MuSK antibodies at 0.3-10 μg/ml were added to the plate and incubated for one hour at RT. After washing the plate, detection antibody (goat anti-human Fc HRP (Jackson Immunoresearch cat. 109-035-098)) was added at 5000 fold dilution in PBS 0.1% casein. The plate was incubated for one hour at RT and washed with PBS-T. TMB was added and the reaction was stopped by adding H2504. […]
For the epitope binning ELISA, a plate was coated with anti-MuSK Fab and human monomeric MuSK was added after blocking the plate. Next the different antibodies were added and allowed to bind.

AChR clusters larger or equal to 3 µm compared to agrin; Exp 1, batch Argenx [1] | AChR clusters larger or equal to 3 µm compared to agrin; Exp 2, batch Argenx [1] | AChR clusters larger or equal to 3 µm compared to agrin; Exp 3, batch UPX [1] | AChR clusters larger or equal to 3 µm compared to agrin; antibody 0.11 µg/mL [2] | AChR clusters larger or equal to 3 µm compared to agrin; antibody 1.1 µg/mL [2] | AChR clusters larger or equal to 3 µm compared to agrin; antibody 11 µg/mL [2] | AChR clusters larger or equal to 3 µm compared to agrin; antibody 110 µg/mL [2] | koff [3] [s⁻¹] | koff [4] [s⁻¹] | koff [5] [s⁻¹] | koff [6] [s⁻¹] | koff [7] [s⁻¹] | koff [8] [s⁻¹] | OD 450 nm [9] [OD] | Binder
64 % of agrin | 99 % of agrin | 71 % of agrin | 80 % of agrin | 79 % of agrin | 76 % of agrin | 73 % of agrin | 9e-05 | 7e-05 | 0.00013 | 0.00012 | 0.00018 | 6e-05 | 2.12 | B1
102 % of agrin | 73 % of agrin | 72 % of agrin | 63 % of agrin | 80 % of agrin | 80 % of agrin | 75 % of agrin | 0.00016 | 0.00016 | 0.00016 | 0.00013 | 0.00013 | 0.00018 | 0.882 | B2
89 % of agrin | 95 % of agrin | 91 % of agrin | 65 % of agrin | 99 % of agrin | 93 % of agrin | 84 % of agrin | 4e-05 | 3e-05 | 0.00014 | 4e-05 | 0.00018 | 3e-05 | 2.66 | B3
71 % of agrin | 105 % of agrin | 69 % of agrin | 74 % of agrin | 57 % of agrin | 62 % of agrin | 61 % of agrin | 0.0002 | 0.00018 | 4e-05 | 0.00014 | 0.00015 | 0.00023 | 2.2 | B4
